Assay results from article PMC10362037.

Biological target: SARS-CoV-2 (2019-nCov) Spike S1 (Abclonal, RP01262) (SARS-CoV-2) (UniProt P0DTC2)
Assay: SPR

| Substance | Kd [µM] |
| --- | --- |
| Human integrin αvβ3 (R&D Systems, 3817-AV-050) (from UniProt P06756 31-1048; P05106 27-718) (complex) | 0.0404 |
| suPAR (purified protein of the SPR assay) (from UniProt Q03405 23-305) (natural protein) | > 2000 |
